Measured values taken from paper PMC11952830.
Residue numbers refer to the chain shown, from its start. Blank lines part the entries; values can stand above or below the binder they belong to.

Target: actin (rabbit muscle), P68135
Test: fluorescence anisotropy
Conditions: chain shown with the change, actin filaments titrated 0-12 µM

Kd (20 nM TMR-labeled KLP-AAA Cdc42EP3 (TMR at C211) held fixed): 3.4 µM
B1: Cdc42EP3 labeled with tetramethylrhodamine (TMR) at C211, Q9UKI2 KLP->AAA (protein)
chain: MPAKTPIYLKAANNKKGKKFKLRDILSPDMISPPLGDFRHTIHIGKEGQHDVFGDISFLQGNYELLPGNQEKAHLGQFPGHNEFFRANSTSDSVFTETPSPVLKNAISLPTIGGSQALMLPLLSPVTFNSKQESFGPAAAARLSAEPVMEEKAQEKSSLLENGTVHQGDTSWGSSGSASQSSQGRDSHSSSLSEQYPDWPAEDMFDHPTPCELIKGKTKSEESLSDLTGSLLSLQLDLGPSLLDEVLNVMDKNK

Kd (20 nM TMR-labeled IS-AA Cdc42EP3 (TMR at C211) held fixed): 2.8 µM
B2: Cdc42EP3 labeled with tetramethylrhodamine (TMR) at C211, Q9UKI2 IS->AA (protein)
chain: B1 chain with I31A, S32A, A139K, A140L, A141P
